The values that follow are results of earlier work, collected in publication PMC3209554.

The series addresses ClpX N domain (Escherichia coli) (UniProt P0A6H1).
UniProt P0A6H1, sequence (P0A6H1 2-56): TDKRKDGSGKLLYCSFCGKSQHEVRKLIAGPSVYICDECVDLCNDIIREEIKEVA

In general, Kd refers to the free concentration of one partner at which half of the binding sites on the other are occupied at equilibrium, for simple one-to-one binding. In the case of “SspB C-terminal tail (from UniProt P0AFZ3)”, the Kd was 20 µM.
